In the supplement of paper PMC5998384:

Columns and labels:
[1] = test system: HeLa Kyoto; experiment: solubility change mitosis vs G1/S (difference of NP-40 vs SDS log2 ratios) (log2 ratio difference); higher = more soluble in mitosis
[2] = test system: HeLa Kyoto; experiment: thermal stability score vs G1/S (z-score of summed log2 fold changes over temperatures); higher = more thermally stable than in G1/S
[3] = test system: HeLa Kyoto; experiment: melting temperature (median over replicates), in situ; higher = more thermally stable
[4] = cell cycle stage: early G1 (4.5 h after nocodazole release)
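For melting temperature (median over replicates), in situ in this document: HeLa Kyoto cells synchronized by double thymidine or nocodazole block, proteins quantified by TMT10plex mass spectrometry, three independent biological replicates.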
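For solubility change mitosis vs G1/S (difference of NP-40 vs SDS log2 ratios) in this document: synchronized HeLa Kyoto cells (double thymidine block for G1/S, nocodazole release for mitosis), protein amounts in NP-40 versus SDS lysates quantified by mass spectrometry, three biological replicates.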
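For thermal stability score vs G1/S (z-score of summed log2 fold changes over temperatures) in this document: synchronized HeLa Kyoto cells, proteins quantified by TMT10plex mass spectrometry, three biological replicates, mitosis taken 0.5 h after nocodazole release, G1/S directly after double thymidine block.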

Chain of ERGIC3 (chain, as listed by the source): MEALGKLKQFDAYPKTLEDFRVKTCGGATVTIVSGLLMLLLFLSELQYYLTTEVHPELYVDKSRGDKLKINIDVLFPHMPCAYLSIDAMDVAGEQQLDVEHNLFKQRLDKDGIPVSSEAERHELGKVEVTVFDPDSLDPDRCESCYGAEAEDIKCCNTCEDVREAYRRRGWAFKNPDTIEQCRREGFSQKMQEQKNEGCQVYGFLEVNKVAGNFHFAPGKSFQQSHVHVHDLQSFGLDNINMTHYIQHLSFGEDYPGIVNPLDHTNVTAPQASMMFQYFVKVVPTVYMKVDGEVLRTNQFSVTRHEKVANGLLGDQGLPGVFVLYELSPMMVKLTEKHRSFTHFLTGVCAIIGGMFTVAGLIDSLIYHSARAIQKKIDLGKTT

| Substance | solubility change mitosis (log2) [1] | further results |
| --- | --- | --- |
| ABCE1 | -0.151 | – |
| ACTR2 | -0.105 | – |
| AKR1B1 | -0.0682 | – |
| ATP1A1 | -0.0968 | – |
| ATP1B1 | -0.0049 | – |
| BRD4 | 0.176 | – |
| CDC73 | -0.0838 | – |
| CLIC1 | 0.0655 | – |
| CTSB | -0.123 | – |
| DLG1 | -0.0806 | – |
| EIF6 | 0.0864 | – |
| ERGIC3 | -0.0891 | thermal stability score [2, 4]: -2.7; thermal stability score ([2]; cell cycle stage: mitosis): -7.02 |
| GTPBP4 | 0.746 | – |
| HAGH | 0.0733 | – |
| HMGN2 | 1.68 | – |
| ICT1 | 0.134 | – |
| ITPA | 0.0757 | – |
| IWS1 | 0.062 | – |
| KDM1A | -0.0676 | – |
| LAMTOR5 | -0.0394 | – |
| MAASSSGEKEKERLGGGLGVAGGNSTRERLLSALEDLEVLSRELIEMLAISRNQKLLQAGEENQVLELLIHRDGEFQELMKLALNQGKIHHEMQVLEKEVEKRDSDIQQLQKQLKEAEQILATAVYQAKEKLKSIEKARKGAISSEEIIKYAHRISASNAVCAPLTWVPGDPRRPYPTDLEMRSGLLGQMNNPSTNGVNGHLPGDALAAGRLPDVLAPQYPWQSNDMSMNMLPPNHSSDFLLEPPGHNKENEDDVEIMSTDSSSSSSESD [MED4] | -0.0345 | thermal stability score [2, 4]: -1.56; thermal stability score ([2]; cell cycle stage: mitosis): -1.18 |
| MGGSGSRLSKELLAEYQDLTFLTKQEILLAHRRFCELLPQEQRSVESSLRAQVPFEQILSLPELKANPFKERICRVFSTSPAKDSLSFEDFLDLLSVFSDTATPDIKSHYAFRIFDFDDDGTLNREDLSRLVNCLTGEGEDTRLSASEMKQLIDNILEESDIDRDGTINLSEFQHVISRSPDFASSFKIVL [CIB1] | -0.0256 | – |

| Substance | solubility change mitosis (log2) [1] | further results |
| --- | --- | --- |
| MRLVILDNYDLASEWAAKYICNRIIQFKPGQDRYFTLGLPTGSTPLGCYKKLIEYHKNGHLSFKYVKTFNMDEYVGLPRNHPESYHSYMWNNFFKHIDIDPNNAHILDGNAADLQAECDAFENKIKEAGGIDLFVGGIGPDGHIAFNEPGSSLVSRTRLKTLAMDTILANAKYFDGDLSKVPTMALTVGVGTVMDAREVMILITGAHKAFALYKAIEEGVNHMWTVSAFQQHPRTIFVCDEDATLELRVKTVKYFKGLMHVHNKLVDPLFSMKDGN [GNPDA2] | – | melting temperature ([3]; cell cycle stage: G1/S): 58.1 °C; melting temperature ([3]; cell cycle stage: mitosis): 58.3 °C; thermal stability score [2, 4]: -0.549; thermal stability score ([2]; cell cycle stage: mitosis): -0.194 |
| MRPL15 | 0.041 | – |
| MRPL16 | 0.059 | – |
| MRPL17 | -0.0699 | – |
| MRPL19 | 0.048 | – |
| MRPL21 | 0.00832 | – |
| MRPL22 | -0.00907 | – |
| MRPL38 | -0.0167 | – |
| MRPL42 | 0.296 | – |
| MRPL44 | -0.0742 | – |
| MRPL49 | 0.257 | – |
| MRPL50 | 0.178 | – |
| MRPL55 | 0.249 | – |
| MRPL57 | -0.109 | – |
| MRPS2 | 0.0234 | – |
| MRPS12 | 0.0958 | – |
| MRPS18A | 0.0389 | – |
| MRPS26 | 0.0692 | – |
| MRPS28 | 0.31 | – |
| MRSPVRDLARNDGEESTDRTPLLPGAPRAEAAPVCCSARYNLAILAFFGFFIVYALRVNLSVALVDMVDSNTTLEDNRTSKACPEHSAPIKVHHNQTGKKYQWDAETQGWILGSFFYGYIITQIPGGYVASKIGGKMLLGFGILGTAVLTLFTPIAADLGVGPLIVLRALEGLGEGVTFPAMHAMWSSWAPPLERSKLLSISYAGAQLGTVISLPLSGIICYYMNWTYVFYFFGTIGIFWFLLWIWLVSDTPQKHKRISHYEKEYILSSLRNQLSSQKSVPWVPILKSLPLWAIVVAHFSYNWTFYTLLTLLPTYMKEILRFNVQENGFLSSLPYLGSWLCMILSGQAADNLRAKWNFSTLCVRRIFSLIGMIGPAVFLVAAGFIGCDYSLAVAFLTISTTLGGFCSSGFSINHLDIAPSYAGILLGITNTFATIPGMVGPVIAKSLTPDNTVGEWQTVFYIAAAINVFGAIFFTLFAKGEVQNWALNDHHGHRH [SLC17A5] | – | melting temperature ([3]; cell cycle stage: G1/S): 57.3 °C; melting temperature ([3]; cell cycle stage: mitosis): 57.6 °C; thermal stability score [2, 4]: -3.39; thermal stability score ([2]; cell cycle stage: mitosis): -4.02 |
| MRTO4 | 0.303 | – |
| MSLLNCENSCGSSQSESDCCVAMASSCSAVTKDDSVGGTASTGNLSSSFMEEIQGYDVEFDPPLESKYECPICLMALREAVQTPCGHRFCKACIIKSIRDAGHKCPVDNEILLENQLFPDNFAKREILSLMVKCPNEGCLHKMELRHLEDHQAHCEFALMDCPQCQRPFQKFHINIHILKDCPRRQVSCDNCAASMAFEDKEIHDQNCPLANVICEYCNTILIREQMPNHYDLDCPTAPIPCTFSTFGCHEKMQRNHLARHLQENTQSHMRMLAQAVHSLSVIPDSGYISEVRNFQETIHQLEGRLVRQDHQIRELTAKMETQSMYVSELKRTIRTLEDKVAEIEAQQCNGIYIWKIGNFGMHLKCQEEEKPVVIHSPGFYTGKPGYKLCMRLHLQLPTAQRCANYISLFVHTMQGEYDSHLPWPFQGTIRLTILDQSEAPVRQNHEEIMDAKPELLAFQRPTIPRNPKGFGYVTFMHLEALRQRTFIKDDTLLVRCEVSTRFDMGSLRREGFQPRSTDAGV [TRAF6] | – | melting temperature ([3]; cell cycle stage: G1/S): 51.5 °C; melting temperature ([3]; cell cycle stage: mitosis): 51.3 °C; thermal stability score [2, 4]: 0.286; thermal stability score ([2]; cell cycle stage: mitosis): -0.125 |

| Substance | solubility change mitosis (log2) [1] | further results |
| --- | --- | --- |
| MSSVQSQQEQLSQSDPSPSPNSCSSFELIDMDAGSLYEPVSPHWFYCKIIDSKETWIPFNSEDSQQLEEAYSSGKGCNGRVVPTDGGRYDVHLGERMRYAVYWDELASEVRRCTWFYKGDKDNKYVPYSESFSQVLEETYMLAVTLDEWKKKLESPNREIIILHNPKLMVHYQPVAGSDDWGSTPTEQGRPRTVKRGVENISVDIHCGEPLQIDHLVFVVHGIGPACDLRFRSIVQCVNDFRSVSLNLLQTHFKKAQENQQIGRVEFLPVNWHSPLHSTGVDVDLQRITLPSINRLRHFTNDTILDVFFYNSPTYCQTIVDTVASEMNRIYTLFLQRNPDFKGGVSIAGHSLGSLILFDILTNQKDSLGDIDSEKDSLNIVMDQGDTPTLEEDLKKLQLSEFFDIFEKEKVDKEALALCTDRDLQEIGIPLGPRKKILNYFSTRKNSMGIKRPAPQPASGANIPKESEFCSSSNTRNGDYLDVGIGQVSVKYPRLIYKPEIFFAFGSPIGMFLTVRGLKRIDPNYRFPTCKGFFNIYHPFDPVAYRIEPMVVPGVEFEPMLIPHHKGRKRMHLELREGLTRMSMDLKNNLLGSLRMAWKSFTRAPYPALQASETPEETEAEPESTSEKPSDVNTEETSVAVKEEVLPINVGMLNGGQRIDYVLQEKPIESFNEYLFALQSHLCYWESEDTVLLVLKEIYQTQGIFLDQPLQ [DDHD2] | – | melting temperature ([3]; cell cycle stage: G1/S): 55.4 °C; melting temperature ([3]; cell cycle stage: mitosis): 54.7 °C; thermal stability score [2, 4]: 1.25; thermal stability score ([2]; cell cycle stage: mitosis): 0.742 |
| MTQNKLKLCSKANVYTEVPDGGWGWAVAVSFFFVEVFTYGIIKTFGVFFNDLMDSFNESNSRISWIISICVFVLTFSAPLATVLSNRFGHRLVVMLGGLLVSTGMVAASFSQEVSHMYVAIGIISGLGYCFSFLPTVTILSQYFGKRRSIVTAVASTGECFAVFAFAPAIMALKERIGWRYSLLFVGLLQLNIVIFGALLRPIFIRGPASPKIVIQENRKEAQYMLENEKTRTSIDSIDSGVELTTSPKNVPTHTNLELEPKADMQQVLVKTSPRPSEKKAPLLDFSILKEKSFICYALFGLFATLGFFAPSLYIIPLGISLGIDQDRAAFLLSTMAIAEVFGRIGAGFVLNREPIRKIYIELICVILLTVSLFAFTFATEFWGLMSCSIFFGFMVGTIGGTHIPLLAEDDVVGIEKMSSAAGVYIFIQSIAGLAGPPLAGLLVDQSKIYSRAFYSCAAGMALAAVCLALVRPCKMGLCQHHHSGETKVVSHRGKTLQDIPEDFLEMDLAKNEHRVHVQMEPV [SLC16A6] | – | melting temperature ([3]; cell cycle stage: G1/S): 54.8 °C; melting temperature ([3]; cell cycle stage: mitosis): 54.4 °C; thermal stability score [2, 4]: -2.68; thermal stability score ([2]; cell cycle stage: mitosis): -4.18 |
| PACSIN3 | 0.0183 | – |
| PAF1 | -0.0983 | – |
| PEX5 | -0.137 | – |
| POFUT1 | -0.148 | – |
| POLR2H | -0.00215 | – |
| POLR2I | 0.429 | – |
| PPIA | -0.0495 | – |
| PPP2R5C | -0.158 | – |
| PRG4 | 0.251 | – |
| PTDSS1 | 0.124 | – |
| RNF167 | -0.0145 | – |
| RPL7L1 | 1.18 | – |
| RPL8 | 0.63 | – |
| RPL10 | 0.638 | – |
| RPL10A | 0.596 | – |
| RPL14 | 0.811 | – |
| RPL17 | 0.699 | – |
| RPL18A | 0.618 | – |
| RPL26 | 0.817 | – |
| RPL28 | 0.852 | – |

| Substance | solubility change mitosis (log2) [1] | further results |
| --- | --- | --- |
| RPL37A | 0.616 | – |
| RPLP0 | 0.6 | – |
| RPS7 | 0.675 | – |
| RPS17 | 0.529 | – |
| RPS19 | 1.02 | – |
| RPS20 | 0.612 | – |
| RPS23 | 0.687 | – |
| RPS24 | 0.772 | – |
| RPS25 | 0.71 | – |
| RPS26 | 0.618 | – |
| RPSA | 0.449 | – |
| RTF1 | 0.0675 | – |
| SMU1 | 0.423 | – |
| SUPT5H | -0.0755 | – |
| TMEM245 | 0.113 | – |
| TPCN1 | -0.0955 | – |
| TTR | 0.336 | – |
| UNC119 | -0.0626 | – |
| WDR12 | 0.45 | – |
| WDR61 | -0.0946 | – |
| YTHDC1 | -0.0521 | – |
